Measurements reported in patent publication US20200057058A1 (MIT, published 2020).

Assays:
[1] = target: monomeric streptavidin variant mSA2; assay: fluorescent binding assay, labeled mSA2 on thin film
Method: The binding function of rcSso7d.SA oligomer-PNIPAM thin films was measured using fluorescently-labeled monomeric streptavidin (mSA2) and fluorescently-labeled streptavidin (SA). Details for the expression, purification, and fluorescent labeling of mSA2 are provided below. Samples were prepared by serial dilution of SA or mSA2 in PBS (pH 7.4), human urine (diluted to 50% v/v in PBS, pH 7.4), or blood serum (obtained as the supernatant by centrifuging whole blood at 1500×g for 10 minutes, then diluted to 50% v/v in PBS, pH 7.4). 0.5 μL drops of solutions containing serially diluted fluorescent mSA2 and fluorescent SA samples in PBS (pH 7.4) were gently applied to the surface of each bioconjugate thin film. […] After 1 hour, films were thoroughly rinsed with water for 10 seconds (a time determined to be sufficient to remove unbound molecules from the film, see FIG. 33, dried under filtered airflow, and immediately analyzed for fluorescent signal. Fluorescence microscopy images were acquired at 4× magnification using a Cy5 filter set and exposure time of 5000 ms on an Olympus IX-81 inverted fluorescence microscope with an AxioCam HRC CCD camera. Fluorescent intensity was calculated using ImageJ software⁶⁷ by determining the average fluorescent signal in a rectangular area of the fluorescent image free of defects and occupying no less than half of the full sample application area. […]

[2] = target: monomeric streptavidin variant mSA2; assay: calculated from [P]T of the mSA2 binding curve fit and film thickness; set-up: Calculated Density (density of binding sites within a cross-sectional area of the film): unit not given here
Method: To determine the density of binding proteins within a single plane of each thin film, the concentration of accessible binding sites throughout the entire film—taken directly from the binding assay curve fits (Table 4)—was multiplied by the corresponding film thickness. When accounting for differences in film thickness, the density of oligomerized rcSso7d.SA proteins capable of binding mSA2 is found to increase […] with degree of oligomerization (Table 5). This calculated density decreases, though, between the 1×SP25k and 2×SP25k thin films, indicating a lower density of accessible binding sites in the protein domains of the oligomerized rcSso7d.SA conjugate film. The total number of predicted binding sites within each thin film assuming complete accessibility should be proportional to the […] of rcSso7d. SA in the conjugate with PNIPAM. Reasonable estimates for relative values of the predicted number of sites can thus be obtained by normalizing the weight fraction of rcSso7d. SA in each conjugate by the corresponding weight fraction in 1×SP25k. Comparing these predicted relative number of binding sites to the calculated values (FIG. 6C), all oligomeric rcSso7d.SA conjugates are found to contain fewer proteins capable of binding mSA2 than predicted. It is likely that this effect results from a combination of steric blocking of binding sites by bound mSA2 molecules as well as a lack of the free volume required to incorporate mSA2 molecules into the protein nanodomains at high degrees of binding. Despite the lower than expected binding capacity of the conjugate thin films, these biosensors contain approximately […] the quantity of accessible binding sites compared to rcSso7d.SA monolayers on a volumetric basis (Table 4). Recognizing that each plane (and a monolayer) of rcSso7d.SA proteins is roughly 1-2 nm thick,⁸⁰ the studied thin films can be determined to contain approximately 100 more planes of protein than a monolayer.

[3] = target: monomeric streptavidin variant mSA2; assay: fluorescent binding assay, labeled mSA2 in PBS on thin film; quadratic curve fit
Method: (§1) The binding function of rcSso7d.SA oligomer-PNIPAM thin films was measured using fluorescently-labeled monomeric streptavidin (mSA2) and fluorescently-labeled streptavidin (SA). Details for the expression, purification, and fluorescent labeling of mSA2 are provided below. Samples were prepared by serial dilution of SA or mSA2 in PBS (pH 7.4), human urine (diluted to 50% v/v in PBS, pH 7.4), or blood serum (obtained as the supernatant by centrifuging whole blood at 1500×g for 10 minutes, then diluted to 50% v/v in PBS, pH 7.4). 0.5 μL drops of solutions containing serially diluted fluorescent mSA2 and fluorescent SA samples in PBS (pH 7.4) were gently applied to the surface of each bioconjugate thin film. Films were incubated in a sealed chamber saturated with water vapor at room temperature to prevent to prevent drying of the applied fluorescent samples. After 1 hour, films were thoroughly rinsed with water for 10 seconds (a time determined to be sufficient to remove unbound molecules from the film, see FIG. 33, dried under filtered airflow, and immediately analyzed for fluorescent signal. Fluorescence microscopy images were acquired at 4× magnification using a Cy5 filter set and exposure time of 5000 ms on an Olympus IX-81 inverted fluorescence microscope with an AxioCam HRC CCD camera. Fluorescent intensity was calculated using ImageJ software⁶⁷ by determining the average fluorescent signal in a rectangular area of the fluorescent image free of defects and occupying no less than half of the full sample application area.
Binding assays were performed by adding serially diluted solutions of fluorescently-labeled mSA2 to thin films of each studied conjugate (FIG. 6A). To maintain consistent transport properties between samples, each oligomer was conjugated to the same previously-synthesized 25 kDa PNIPAM sample. Analyte bound to thin films was quantified using fluorescence microscopy, and binding curves were fit to the collected mean fluorescent intensity (MFI) data using the following equation: […]

[4] = target: monomeric streptavidin variant mSA2; assay: fluorescent binding assay, labeled mSA2; signal three standard deviations above blank
Method: as §1
Oligomerization of rcSso7d.SA also brings about a decrease in biosensor limit of detection (LOD). […] While all thin films display improvements up to threefold in LOD over the monolayer, the trend in LOD with respect to degree of oligomerization is non-monotonic. The primary factor that is expected to affect LOD in the studied biosensors is number of binding sites, as more binding sites enable a greater number of analyte molecules to be captured and shifts analyte-receptor equilibrium in favor of binding events.

B1: 3xSP25k thin film (3x rcSso7d.SA-PNIPAM conjugate, PNIPAM Mn 24.9 kDa) (designed binder)
chain: MGSSHHHHHHSSGLVPRGSHMCATVKFTYQGEEKQVDISKIKIVARDGQYIDFKYDEGGGAYGYGWVSEKDAPKELLQMLEKQGGGGSGGGGSMATVKFTYQGEEKQVDISKIKIVARDGQYIDFKYDEGGGAYGYGWVSEKDAPKELLQMLEKQGGGGSGGGGSMATVKFTYQGEEKQVDISKIKIVARDGQYIDFKYDEGGGAYGYGWVSEKDAPKELLQMLEKQGG
modifications: maleimide end-functionalized PNIPAM (Mn 24.9 kDa) on the N-terminal Cys; film lightly crosslinked with glutaraldehyde
notes: Three rcSso7d.SA repeats joined by (G4S)2 linkers in one chain; also called conjugate of the trimer
[1]
  fluorescent signal relative to rcSso7d.SA monolayer: > 10 fold
[2]
  Calculated Density (density of binding sites within a cross-sectional area of the film): 59
  Calculated Ratio (film thickness x [P]T relative to the 1xSP25k thin film): 1.24
[3]
  [P]T (total concentration of accessible binding sites): 3.9 µM
[4]
  limit of detection (LOD): 110 nM
